According to US20200339690A1 (JOUNCE THERAPEUTICS, published 2020):
Substitutions are numbered along the chain they refer to. One block for each binder: values may come before it.

Experiments:
[1] = target: T1, human LILRB2 expressed on cells (human, UniProt Q8N423 22-597); assay: flow cytometry, LILRB2 CHOs
T1 construct: CHO-s cells over-expressing full-length human LILRB2, or primary human macrophages and dendritic cells; also called hLILRB2-CHO-s; hLILRB2+ CHO-s

[2] = target: T2, human LILRA1 (human, UniProt O75019 17-489); assay: flow cytometry, LILRA1 CHOs
T2 construct: Over-expressed on CHO-s cells; also called hLILRA1
T2 sequence (O75019 17-489 limits assumed): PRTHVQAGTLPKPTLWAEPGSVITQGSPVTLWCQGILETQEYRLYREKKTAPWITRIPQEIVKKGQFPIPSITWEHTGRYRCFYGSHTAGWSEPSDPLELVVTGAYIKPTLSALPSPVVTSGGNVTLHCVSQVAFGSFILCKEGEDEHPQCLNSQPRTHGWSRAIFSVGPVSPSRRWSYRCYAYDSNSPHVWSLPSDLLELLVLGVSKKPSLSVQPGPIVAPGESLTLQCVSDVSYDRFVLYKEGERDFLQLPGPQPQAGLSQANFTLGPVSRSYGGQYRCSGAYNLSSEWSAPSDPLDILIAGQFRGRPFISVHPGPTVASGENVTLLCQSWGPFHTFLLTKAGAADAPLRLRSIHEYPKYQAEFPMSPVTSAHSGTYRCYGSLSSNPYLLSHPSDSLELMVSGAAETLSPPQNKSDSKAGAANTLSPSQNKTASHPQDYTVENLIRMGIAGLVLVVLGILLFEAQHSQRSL
Method: (§1) To test for specificity to hLILRB2 and not towards any of the ten LILR family members, a multiplexed cell-based barcoding approach was used by staining cells with Far Red and/or Violet Cell Trace dyes (Thermo Scientific) according to manufacturer's protocol or left unstained. In brief, cells were washed twice with 1×DPBS and then incubated with diluted dye in 1×DPBS for 20 minutes at 37° C., mixing gently every 5-10 minutes. Dye labeling was quenched by adding equal volume of 100% HI-FBS (Sigma) to the cells. Note that LILRB1, LILRB2, LILRB3, LILRB4, and LILRB5 cell lines are also GFP-positive, while LILRA1, LILRA2, LILRA3, LILRA4, LILRA5, and LILRA6 cell lines are GFP-negative. The cells were then washed twice in 1×DPBS and then all 11 cell lines were combined per well in a 96-well round bottom tissue-culture treated plate. At least 25×10³ cells of each cell-line were plated per well. Cells were then re-suspended in primary antibody (anti-LILRB2 mAbs or control) prepared in FACS buffer (1×DPBS containing 2% HI-FBS (Sigma)+0.05% Sodium Azide). After incubation at 4° C. for 30 minutes, cells were washed twice with 1×DPBS and re-suspended in anti-human IgG-PE (BioLegend) diluted 1:200 in FACS buffer. Following a 30 minute incubation at 4° C., protected from light, cells were washed in 1×DPBS and re-suspended in fix buffer (1.5% paraformaldehyde diluted in 1×DPBS). Samples were analyzed using the Celesta flow cytometer analyzer (BD Biosciences). Geometric mean fluorescence intensity (gMFI) of PE was determined for each antibody across each cell line. Background MFI was detected with isotype control and relative binding of antibodies tested was measured as a fold over isotype.

[3] = target: human LILRB2-His (human, UniProt Q8N423 22-460); assay: SPR, Sierra Sensors MASS-2; antibody captured on anti-human Fc, LILRB2-His 65 to 0.27 nM, 1:1 Langmuir fit
Sequence of human LILRB2-His (Q8N423 other isoform, or with tags, fused parts or gaps): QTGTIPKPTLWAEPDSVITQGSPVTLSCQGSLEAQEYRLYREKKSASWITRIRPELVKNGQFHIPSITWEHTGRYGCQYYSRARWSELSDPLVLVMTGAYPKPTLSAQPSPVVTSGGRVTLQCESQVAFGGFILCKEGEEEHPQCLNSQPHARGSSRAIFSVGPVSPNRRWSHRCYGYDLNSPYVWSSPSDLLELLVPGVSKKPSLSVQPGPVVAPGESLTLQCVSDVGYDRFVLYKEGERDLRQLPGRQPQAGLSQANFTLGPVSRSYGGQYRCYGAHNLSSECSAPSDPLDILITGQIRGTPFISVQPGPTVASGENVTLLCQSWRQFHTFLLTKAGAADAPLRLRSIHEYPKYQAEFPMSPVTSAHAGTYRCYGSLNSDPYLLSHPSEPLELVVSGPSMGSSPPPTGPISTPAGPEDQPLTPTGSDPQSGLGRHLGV
Method: Using a Mass-2 (Sierra Sensors) high capacity amine chip preimmobilized with AffiniPure Goat Anti-Human IgG, Fcγ Fragment Specific antibody, humanized antibodies were captured on the anti-human surface and then binding to human LILRB2-His was measured by flowing six different concentrations from 65 to 0.27 nM of the analyte over the antibody surface. The anti-LILRB2 surface was removed (10 mM Glycine, pH 2.0) and recaptured between all concentrations or buffer only cycles. The data was analyzed using the Sierra Analyzer software (version 3.1.14). All curves were double subtracted and fit to a 1:1 Langmuir Fit.

[4] = target: T1, human LILRB2 expressed on cells; assay: flow cytometry, binding to hLILRB2 CHOs
[5] = target: T3, human LILRB5 (human, UniProt O75023 24-590); assay: flow cytometry, LILRB5 CHOs
T3 construct: Over-expressed on CHO-s cells; also called hLILRB5
T3 sequence (O75023 24-590 P542R limits assumed): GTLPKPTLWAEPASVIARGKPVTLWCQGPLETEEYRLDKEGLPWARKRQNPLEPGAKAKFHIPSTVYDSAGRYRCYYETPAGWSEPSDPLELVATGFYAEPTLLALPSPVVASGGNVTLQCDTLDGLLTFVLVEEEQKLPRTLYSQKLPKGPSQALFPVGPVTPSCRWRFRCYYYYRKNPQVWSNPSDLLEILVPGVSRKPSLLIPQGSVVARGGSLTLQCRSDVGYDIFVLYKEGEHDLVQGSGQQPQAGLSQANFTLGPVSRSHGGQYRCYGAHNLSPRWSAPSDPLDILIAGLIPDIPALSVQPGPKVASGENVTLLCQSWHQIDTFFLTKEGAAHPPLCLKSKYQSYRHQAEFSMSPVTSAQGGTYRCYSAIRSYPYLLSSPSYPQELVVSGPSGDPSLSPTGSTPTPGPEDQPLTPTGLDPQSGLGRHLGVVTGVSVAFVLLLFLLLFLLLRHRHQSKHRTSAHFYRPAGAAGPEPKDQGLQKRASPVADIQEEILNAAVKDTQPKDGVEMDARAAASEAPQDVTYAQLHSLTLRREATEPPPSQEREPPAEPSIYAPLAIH
Method: as §1

[6] = target: T4, human LILRA3 (human, UniProt Q8N6C8 24-439); assay: flow cytometry, LILRA3 CHOs
T4 construct: Over-expressed on CHO-s cells; also called hLILRA3
T4 sequence (Q8N6C8 24-439 limits assumed): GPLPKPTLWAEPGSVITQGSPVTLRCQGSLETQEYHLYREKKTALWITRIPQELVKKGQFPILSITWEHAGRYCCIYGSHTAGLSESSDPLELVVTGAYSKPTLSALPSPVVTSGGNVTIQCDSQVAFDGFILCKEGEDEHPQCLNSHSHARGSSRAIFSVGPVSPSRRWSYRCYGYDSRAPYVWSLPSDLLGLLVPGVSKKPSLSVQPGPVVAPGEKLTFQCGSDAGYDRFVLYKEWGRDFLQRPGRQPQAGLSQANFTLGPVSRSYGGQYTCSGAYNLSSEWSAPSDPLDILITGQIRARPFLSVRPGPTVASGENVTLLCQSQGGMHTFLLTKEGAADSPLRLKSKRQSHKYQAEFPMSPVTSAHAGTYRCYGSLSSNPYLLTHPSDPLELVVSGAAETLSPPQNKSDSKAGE
Method: as §1

[7] = target: T5, human LILRB1 (human, UniProt Q8NHL6 24-650); assay: flow cytometry, LILRB1 CHOs
T5 construct: Over-expressed on CHO-s cells; also called hLILRB1
T5 sequence (Q8NHL6 24-650 limits assumed): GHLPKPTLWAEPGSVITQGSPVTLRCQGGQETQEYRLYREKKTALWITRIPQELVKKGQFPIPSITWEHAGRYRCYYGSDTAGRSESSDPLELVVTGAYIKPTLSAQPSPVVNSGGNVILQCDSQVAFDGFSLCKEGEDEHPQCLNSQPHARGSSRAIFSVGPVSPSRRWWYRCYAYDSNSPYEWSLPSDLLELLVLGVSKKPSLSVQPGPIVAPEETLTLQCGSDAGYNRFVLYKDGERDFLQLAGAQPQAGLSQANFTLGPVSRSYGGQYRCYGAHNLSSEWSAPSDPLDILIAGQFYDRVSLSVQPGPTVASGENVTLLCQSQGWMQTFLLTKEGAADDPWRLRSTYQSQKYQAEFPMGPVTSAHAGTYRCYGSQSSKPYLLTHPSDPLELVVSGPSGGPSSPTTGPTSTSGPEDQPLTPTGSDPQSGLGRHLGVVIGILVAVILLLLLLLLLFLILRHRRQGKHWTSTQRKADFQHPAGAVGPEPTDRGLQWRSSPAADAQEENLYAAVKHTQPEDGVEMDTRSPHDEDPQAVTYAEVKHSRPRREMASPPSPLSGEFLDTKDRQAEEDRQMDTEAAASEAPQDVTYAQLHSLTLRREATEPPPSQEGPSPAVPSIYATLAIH
Method: as §1

[8] = target: T6, human LILRA4 (human, UniProt P59901 24-499); assay: flow cytometry, LILRA4 CHOs
T6 construct: Over-expressed on CHO-s cells; also called hLILRA4
T6 sequence (P59901 other isoform, or with tags, fused parts or gaps limits assumed): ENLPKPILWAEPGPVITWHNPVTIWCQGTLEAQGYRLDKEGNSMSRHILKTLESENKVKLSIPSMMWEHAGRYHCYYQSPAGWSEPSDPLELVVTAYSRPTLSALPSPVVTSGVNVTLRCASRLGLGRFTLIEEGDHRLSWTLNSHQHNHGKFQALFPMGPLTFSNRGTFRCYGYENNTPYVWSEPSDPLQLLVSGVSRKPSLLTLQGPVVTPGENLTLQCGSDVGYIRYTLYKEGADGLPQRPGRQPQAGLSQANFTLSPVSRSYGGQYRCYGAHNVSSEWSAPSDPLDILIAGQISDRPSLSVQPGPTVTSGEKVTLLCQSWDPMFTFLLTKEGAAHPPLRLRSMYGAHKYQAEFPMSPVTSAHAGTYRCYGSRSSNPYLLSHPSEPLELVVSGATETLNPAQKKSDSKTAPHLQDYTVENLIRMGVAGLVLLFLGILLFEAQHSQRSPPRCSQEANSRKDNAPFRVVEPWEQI
Method: as §1

[9] = target: T7, human LILRB4 (human, UniProt Q8NHJ6 22-448); assay: flow cytometry, LILRB4 CHOs
T7 construct: Over-expressed on CHO-s cells; also called hLILRB4
Method: as §1

[10] = target: T1, human LILRB2 expressed on cells; assay: cell-based or functional assay
[11] = target: T8, human LILRA6 (human, UniProt Q6PI73 24-481); assay: flow cytometry, LILRA6 CHOs
T8 construct: Over-expressed on CHO-s cells; also called hLILRA6
T8 sequence (Q6PI73 24-481 limits assumed): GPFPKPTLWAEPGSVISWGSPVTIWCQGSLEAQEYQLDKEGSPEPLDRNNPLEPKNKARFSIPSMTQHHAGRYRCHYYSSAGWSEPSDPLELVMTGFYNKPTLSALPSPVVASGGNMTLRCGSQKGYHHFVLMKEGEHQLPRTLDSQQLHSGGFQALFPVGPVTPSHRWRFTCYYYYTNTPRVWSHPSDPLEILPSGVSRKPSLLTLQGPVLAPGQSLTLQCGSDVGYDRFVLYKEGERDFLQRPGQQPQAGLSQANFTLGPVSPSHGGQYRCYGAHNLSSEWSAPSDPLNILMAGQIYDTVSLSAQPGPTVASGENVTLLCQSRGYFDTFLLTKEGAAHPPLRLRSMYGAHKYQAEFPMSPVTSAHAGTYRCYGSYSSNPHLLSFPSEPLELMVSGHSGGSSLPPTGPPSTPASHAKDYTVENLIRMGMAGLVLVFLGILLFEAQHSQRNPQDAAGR
Method: as §1

[12] = target: T9, human LILRA2 (human, UniProt Q8N149 24-483); assay: flow cytometry, LILRA2 CHOs
T9 construct: Over-expressed on CHO-s cells; also called hLILRA2
T9 sequence (Q8N149 24-483 S135L limits assumed): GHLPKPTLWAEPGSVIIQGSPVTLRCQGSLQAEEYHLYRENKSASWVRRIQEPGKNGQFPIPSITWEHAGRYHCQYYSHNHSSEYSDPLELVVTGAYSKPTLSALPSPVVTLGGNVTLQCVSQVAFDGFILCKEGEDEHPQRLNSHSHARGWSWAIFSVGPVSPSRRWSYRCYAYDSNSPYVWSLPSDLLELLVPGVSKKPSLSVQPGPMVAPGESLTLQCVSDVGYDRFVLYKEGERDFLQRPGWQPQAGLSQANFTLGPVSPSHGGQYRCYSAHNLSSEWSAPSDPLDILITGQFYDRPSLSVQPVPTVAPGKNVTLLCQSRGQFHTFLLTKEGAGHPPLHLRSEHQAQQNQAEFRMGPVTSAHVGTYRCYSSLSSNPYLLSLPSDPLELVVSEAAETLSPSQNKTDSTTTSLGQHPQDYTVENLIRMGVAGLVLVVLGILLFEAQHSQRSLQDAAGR
Method: as §1

[13] = target: T1, human LILRB2 expressed on cells; assay: HLA-A2:LILRB2 blocking; HLA-A2 tetramer on primary human macrophages, flow cytometry
Method: (§2) The potency of select humanized variants in blocking the interaction of HLA-G and HLA-A2 with primary human macrophage-expressed hLILRB2 were assessed. Primary human monocytes were differentiated into macrophages in the presence of M-CSF. After seven days of differentiation, 1×10⁵ HMDMs were plated in 96-well round-bottom tissue culture-treated plate and washed twice with 1×DPBS (Gibco) and then incubated with 50 μL primary antibody (anti-LILRB2 mAbs or control) prepared in FACS buffer (1×DPBS containing 2% HI-FBS (Sigma)+0.05% Sodium Azide). After incubation with mAbs for 30 minutes at 4° C., cells were washed twice in FACS buffer and then resuspended in 50 μL of FACS buffer containing 5 μg/mL APC-conjugated HLA-G or HLA-A2 tetramer (Fred Hutch). Cells were incubated protected from light for 30-60 minutes at 4° C. After incubation with tetramer, cells were washed in FACS buffer and re-suspended in fix buffer (1.5% paraformaldehyde diluted in 1×DPBS). Samples were analyzed using the Celesta flow cytometer analyzer (BD Biosciences).

[14] = target: T10, human LILRA5 (human, UniProt A6NI73 42-299); assay: flow cytometry, LILRA5 CHOs
T10 construct: Over-expressed on CHO-s cells; also called hLILRA5
T10 sequence (A6NI73 42-299 limits assumed): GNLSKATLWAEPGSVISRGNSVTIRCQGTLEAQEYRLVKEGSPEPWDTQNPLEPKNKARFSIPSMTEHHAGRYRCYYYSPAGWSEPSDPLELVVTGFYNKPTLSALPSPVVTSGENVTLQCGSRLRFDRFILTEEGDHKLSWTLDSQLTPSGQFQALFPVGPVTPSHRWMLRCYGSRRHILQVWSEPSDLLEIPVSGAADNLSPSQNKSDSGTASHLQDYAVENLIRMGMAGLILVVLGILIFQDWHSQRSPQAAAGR
Method: as §1

[15] = target: T1, human LILRB2 expressed on cells; assay: HLA-G:LILRB2 blocking; HLA-G tetramer on primary human macrophages, flow cytometry
Method: as §2

[16] = target: T11, human LILRB3 (human, UniProt O75022 24-631); assay: flow cytometry, LILRB3 CHOs
T11 construct: Over-expressed on CHO-s cells; also called hLILRB3
Method: as §1

T1 sequence (Q8N423 other isoform, or with tags, fused parts or gaps limits assumed): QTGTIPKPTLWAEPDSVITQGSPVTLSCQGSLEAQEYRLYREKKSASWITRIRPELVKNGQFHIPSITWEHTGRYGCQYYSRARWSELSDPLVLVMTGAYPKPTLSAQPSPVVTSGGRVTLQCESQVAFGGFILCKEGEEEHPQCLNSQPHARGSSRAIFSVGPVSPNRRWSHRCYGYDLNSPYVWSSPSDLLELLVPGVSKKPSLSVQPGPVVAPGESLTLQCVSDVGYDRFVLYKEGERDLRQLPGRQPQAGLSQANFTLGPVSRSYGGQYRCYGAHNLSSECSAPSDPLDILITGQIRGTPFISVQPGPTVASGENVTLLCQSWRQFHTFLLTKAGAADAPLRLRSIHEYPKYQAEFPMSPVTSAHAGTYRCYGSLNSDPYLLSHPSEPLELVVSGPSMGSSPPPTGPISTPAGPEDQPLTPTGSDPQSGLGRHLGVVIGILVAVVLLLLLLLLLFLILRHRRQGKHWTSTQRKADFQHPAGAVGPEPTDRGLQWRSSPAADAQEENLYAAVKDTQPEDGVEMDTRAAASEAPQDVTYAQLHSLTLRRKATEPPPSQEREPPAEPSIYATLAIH

- binding (fold over iso) [1]: 73.2 fold over iso
- binding (fold over iso) [2]: 0.95 fold over iso
- binding result [2]: no binding
- Kd [3]: 2.73 nM
- koff [3]: 0.00107 s⁻¹
- kon [3]: 391000 M⁻¹ s⁻¹
- EC50 [4]: 0.032 nM
- binding (fold over iso) [5]: 1.01 fold over iso
- binding result [5]: no binding
- binding (fold over iso) [6]: 0.97 fold over iso
- binding result [6]: no binding
- binding (fold over iso) [7]: 0.79 fold over iso
- binding result [7]: no binding
- binding (fold over iso) [8]: 0.95 fold over iso
- binding result [8]: no binding
- binding (fold over iso) [9]: 1.22 fold over iso
- binding result [9]: no binding
- EC50, IL-6 production by LPS-stimulated HMDMs [10]: 0.085 nM
- EC50, TNFa production by LPS-stimulated HMDMs [10]: 0.076 nM
- IC50, CCL2 production by LPS-stimulated HMDMs [10]: 0.005 nM
- IC50, IL-10 production by LPS-stimulated HMDMs [10]: 0.45 nM
- binding (fold over iso) [11]: 0.98 fold over iso
- binding result [11]: no binding
- binding (fold over iso) [12]: 0.88 fold over iso
- binding result [12]: no binding
- EC50 [13]: 0.083 nM
- binding (fold over iso) [14]: 1.34 fold over iso
- binding result [14]: no binding
- EC50 [15]: 0.162 nM
- binding (fold over iso) [16]: 1 fold over iso
- binding result [16]: no binding
B1: J-19.h1 (antibody, human IgG4 S228P, kappa, V domains shown)
VH: QITLKESGPTLVKPTQTLTLTCTFSGFSLNTYAMGVSWIRQPPGKALEWLASIWWNGNKYNNPSLKSRLTVTKDTSKNQVVLTMTNMDPVDTATYYCAHSRIIRFTDYVMDAWGQGTLVTVSS
VL: DIQMTQSPSSLSTSVGDRVTITCRASEDIYNDLAWYQQKPGKAPKLLIYNANSLHTGVASRFSGSGSGTDFTFTISSLQPEDVATYFCQQYYDYPLTFGQGTKLEIKR
notes: Humanized, human IgG4 backbone

- binding (fold over iso) [1]: 79.4 fold over iso
- binding (fold over iso) [2]: 1 fold over iso
- binding result [2]: no binding
- Kd [3]: 1.96 nM
- koff [3]: 0.00101 s⁻¹
- kon [3]: 518000 M⁻¹ s⁻¹
- EC50 [4]: 0.0325 nM
- binding (fold over iso) [5]: 0.95 fold over iso
- binding result [5]: no binding
- binding (fold over iso) [6]: 0.92 fold over iso
- binding result [6]: no binding
- binding (fold over iso) [7]: 0.84 fold over iso
- binding result [7]: no binding
- binding (fold over iso) [8]: 0.99 fold over iso
- binding result [8]: no binding
- binding (fold over iso) [9]: 1.16 fold over iso
- binding result [9]: no binding
- EC50, IL-6 production by LPS-stimulated HMDMs [10]: 0.083 nM
- EC50, TNFa production by LPS-stimulated HMDMs [10]: 0.087 nM
- IC50, CCL2 production by LPS-stimulated HMDMs [10]: 5.9 nM
- IC50, IL-10 production by LPS-stimulated HMDMs [10]: 0.27 nM
- binding (fold over iso) [11]: 1.03 fold over iso
- binding result [11]: no binding
- binding (fold over iso) [12]: 0.83 fold over iso
- binding result [12]: no binding
- EC50 [13]: 0.103 nM
- binding (fold over iso) [14]: 1.22 fold over iso
- binding result [14]: no binding
- EC50 [15]: 0.113 nM
- binding (fold over iso) [16]: 0.97 fold over iso
- binding result [16]: no binding
B2: J-19.h3 (antibody, human IgG4 S228P, kappa, V domains shown)
VH: B1 VH with I2V, T10S, V71I, T83K, M84V, V90A, L118T
VL: DIVMTQSPSSLSASVGDTVTITCRASEDIYNDLAWYQQKPGKAPQLLLYNANSLHTGVPSRFSGSGSGTDYTLTISTLQPEDFATYYCQQYYDYPLTFGPGTKVHIKR
notes: as for B1
